Test results taken from patent US20240325557A1, “TREATMENT OF CANCER” (INNATE PHARMA, priority 2020, published 2024).
Where a chain is given by its changes, count along the chain named. Entries after “also recorded” stand apart in the source; their conditions may differ.

T1: Hu-Nectin4 IgC1C2-V5 (modified Nectin-4 lacking the Ig-like V domain, C1C2 construct) (Homo sapiens, UniProt Q96NY8)
T1 construct: expressed in transfected cells; host or cells: CHO
T1 sequence (Q96NY8 148-510): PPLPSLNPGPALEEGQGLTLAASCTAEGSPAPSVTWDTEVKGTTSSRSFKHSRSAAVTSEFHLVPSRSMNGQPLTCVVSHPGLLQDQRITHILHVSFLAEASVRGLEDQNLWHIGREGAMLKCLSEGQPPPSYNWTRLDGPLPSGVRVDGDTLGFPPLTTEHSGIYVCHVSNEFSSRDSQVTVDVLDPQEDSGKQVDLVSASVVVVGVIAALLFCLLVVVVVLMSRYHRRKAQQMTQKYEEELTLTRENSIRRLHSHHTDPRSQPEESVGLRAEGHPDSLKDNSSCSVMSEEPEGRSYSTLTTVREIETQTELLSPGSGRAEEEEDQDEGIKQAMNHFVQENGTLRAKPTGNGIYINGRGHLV

T2: wild-type human Nectin-4 (Homo sapiens, UniProt Q96NY8)
T2 construct: expressed in transfected cells; host or cells: CHO (huNectin4 Cl.3C8)
T2 sequence (Q96NY8 32-510): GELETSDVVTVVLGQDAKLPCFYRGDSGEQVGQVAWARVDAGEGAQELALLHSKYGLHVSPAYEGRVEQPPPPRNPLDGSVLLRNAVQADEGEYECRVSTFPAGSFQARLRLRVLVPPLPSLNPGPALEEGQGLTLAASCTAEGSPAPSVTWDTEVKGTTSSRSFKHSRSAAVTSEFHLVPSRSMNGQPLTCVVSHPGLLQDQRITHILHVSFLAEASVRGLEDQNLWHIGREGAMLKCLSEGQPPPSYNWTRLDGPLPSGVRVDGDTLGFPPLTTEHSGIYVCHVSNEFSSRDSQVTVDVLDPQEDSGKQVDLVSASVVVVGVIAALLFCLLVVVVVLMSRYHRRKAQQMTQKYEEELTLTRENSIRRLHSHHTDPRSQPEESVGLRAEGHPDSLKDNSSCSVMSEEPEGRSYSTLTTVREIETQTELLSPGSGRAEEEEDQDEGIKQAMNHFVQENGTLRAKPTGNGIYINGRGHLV

B1: 5E7 (antibody, V domains shown)
VH: QVQLQQPGAELVKPGASVKLSCKASGYIFTSYWMHWVKQRPGQGLEWIGEIDPSDSYTNYNQKFKGKATLTLDKSSSTTYMQLSSLTSEDSAVYYCVRGYGNYGDYWGQGTTLTVSS
VL: DVVMTQAAFSNPVTLGTSASISCRSSKSLLHSNGITYLYWYLQKPGQSPQLLIYQMSNLASGVPDRFSSSGSGTDFTLRISRVEAEDVGVYYCAQNLELPWTFGGGTKLEIK
B2: 10B12: anti-Nectin-4 antibody, VH SEQ ID NO: 24, VL SEQ ID NO: 25, binds junction of domain C1 and V (antibody, listed as Mus musculus, V domains shown)
VH: B1 VH with I28T, L72V, T79A
VL: B1 VL with V2I
B3: N41 (antibody, V domains shown)
VH: QVQLKQSGPGLVQPSQSLSITCTVSGFSLTNYGVHWVRQSPGKGLEWLGVIWSGGSTDYNAAFISRLSISKDTSKSQVFFKMNSLQADDTAIYYCARELIHAMDNWGQGTSVTVSS
VL: DIQMTQSPASLSVSVGETVTITCRASENIYSNLAWYQQKQGNSPQLLVFAATNLADGVPSRFSGSGSGTQYSLKINSLQSEDFGTYYCQHFWGTPTFGGGTKLEIK

target: T1, Hu-Nectin4 IgC1C2-V5 (modified Nectin-4 lacking the Ig-like V domain, C1C2 construct); experiment: Flow cytometry binding to cells expressing the Nectin-4 C1C2 construct; details: not given
Description: (§1) The characterization of the binding of the antibodies on Nectin-4 domains was performed by flow cytometry using cells made to express the wild-type human Nectin-4 protein and cells made to express a modified Nectin-4 having the Ig-like C2 type 1 and the Ig-like C2 type 2 domains and lacking the Ig-like V domain (the C1C2 construct). The latter protein additionally bears a V5 tag for flow cytometry cell sorting, and cells were used as Nectin4-C1C2-V5 sorted cells.
Wild-type Nectin-4 (the CI.3C8 cell line), a C2 construct (containing the Ig-like C2 type 2 domain and lacking both the V and the C1 domains) and the C1C2 construct allow the determination of whether test antibodies bind to the V or different C domains. Briefly, nucleic acid sequences encoding different human Nectin-4 domains were amplified by PCR. The PCR products were inserted into an expression vector at appropriate restriction sites. A leader peptide, and for C1C2 and C2 an N-terminal V5 tag having the amino acid sequence […] (SEQ ID NO: 41), were added, and expression at the surface of cells was confirmed by flow cytometry. The amino acid sequences of the resulting different human Nectin-4 domain fragment-containing proteins are shown below (V5 tag underlined). The vectors were then transfected into the CHO cell line to obtain stable clones expressing the different Nectin-4 domain proteins at the cell surface.

| Molecule | binding to the C1C2 construct |
| --- | --- |
| B1 | partial loss of binding to the C1C2 construct; also recorded: retain binding to the C1C2 construct |
| B2 | partial loss of binding to the C1C2 construct; also recorded: retain binding to the C1C2 construct |
| B3 | lost all binding to the C1C2 construct |

target: T2, wild-type human Nectin-4; experiment: Flow cytometry binding to wild-type Nectin-4 expressing CHO cells; details: not given
Description: plates of hybridoma supernatants were tested for binding on the wild-type human Nectin-4 expressing CHO cell line by flow cytometry. Briefly, Nectin-4 expressing cells were used at 0.2×10^6 cells by well in a buffer of PBS, BSA 0.5%, EDTA 5 mM. The first antibody was incubated with cells for 1h at +5±3° C. in 50 μL of supernatant. […] Acquisition HTFC flow cytometer (Intellicyt), with data analysis on ForeCyt™ software.
as §1
Wild-type Nectin-4 (the CI.3C8 cell line), a C2 construct (containing the Ig-like C2 type 2 domain and lacking both the V and the C1 domains) and the C1C2 construct allow the determination of whether test antibodies bind to the V or different C domains. Briefly, nucleic acid sequences encoding different human Nectin-4 domains were amplified by PCR. The PCR products were inserted into an expression vector at appropriate restriction sites. […] The amino acid sequences of the resulting different human Nectin-4 domain fragment-containing proteins are shown below (V5 tag underlined). The vectors were then transfected into the CHO cell line to obtain stable clones expressing the different Nectin-4 domain proteins at the cell surface.

| Molecule | binding to whole (wild-type) human Nectin-4 protein |
| --- | --- |
| B1 | lower plateau |
| B2 | lower plateau |
| B3 | bound to the whole Nectin-4 protein |

system: not listed separately; experiment: Binding to HEK-293T cells, negative control of the point mutant test; parameters: species or system human; details: not given
Description: (§2) Nectin-4 mutants were generated by PCR. The sequences amplified were run on agarose gel and purified using the Macherey Nagel PCR Clean-Up Gel Extraction kit. The purified PCR products generated for each mutant were then ligated into an expression vector, with the ClonTech InFusion system. The vectors containing the mutated sequences were prepared as Miniprep and sequenced. After sequencing, the vectors containing the mutated sequences were prepared as Midiprep using the Promega PureYield™ Plasmid Midiprep System. HEK293T cells were grown in DMEM medium (Invitrogen), transfected with vectors using Invitrogen's Lipofectamine 2000 and incubated at 37° C. in a CO2 incubator for 48 hours prior to testing for transgene expression. The targeted amino acid mutations are shown in Table 2 below, listing the residue present in wild-type Nectin-4/position of residue/residue present in mutant Nectin-4, with position reference being to the Nectin-4 protein with leader peptide shown in SEQ ID NO: 1.

| Molecule | association, EXPI medium (negative control) |
| --- | --- |
| B1 | − |
| B2 | − |
| B3 | − |

system: Nectin-4 Mutant 5 (A158P/E160G/S243A/F244S); experiment: Binding to cell surface expressed Nectin-4 point mutant; parameters: species or system human; details: HEK-293T; results irrelevant, due to an absence of expression of said protein
Text: Combined with the published structures of the Nectin-4 domains, Nectin-4 mutations at surface exposed amino acids residues were designed. Nectin-4 domain structure was modelled based on Protein Data Bank reference: 4FRW (domains V et C1). Human Nectin-4 used was NCBI Reference Sequence: NP_112178.2, mouse Nectin-4 used was NCBI Reference Sequence: AAL79833.1, cynomolgus Nectin-4 used was NCBI Reference Sequence: XP_005541277.1, rat Nectin-4 used was NCBI Reference Sequence: NP_001102546.1. The cells expressing the Nectin-4 mutants are then be used for testing anti-Nectin-4 antibodies for loss of binding to different Nectin-4 mutants to identify antibodies that bind to the same site on Nectin-4. […] FIGS. 12A and 12B show a molecular model of the human Nectin-4 protein, indicating the position of substituted residues in mutants 7 (12A) and in mutants 7bis (12B); these mutants are in the C1 domain identify two sites at the junction of domain C1 and V domain that are on opposing faces of the Nectin-4 protein.
as §2

| Molecule | association with Nectin-4 Mutant 5 |
| --- | --- |
| B1 | − |
| B2 | − |
| B3 | − |
